Reference: patent US20030235558A1

Target: ^125I-labeled multiubiquitin chains
Experiment: GST fusion on glutathione agarose beads, ^125I-labeled multiubiquitin chains, gamma-counting

## GST fused p62 ubiquitin binding region (GST.p62C259) (from UniProt O08623 363-439)
  Multiubiquitin Chain Bound (%): 100%
  Multiubiquitin Chain Bound cpm: 5210 cpm

## GST fused p62 ubiquitin binding region mutant L394/L395 → A/A (from UniProt O08623 363-439)
  Multiubiquitin Chain Bound (%): 17%
  Multiubiquitin Chain Bound cpm: 877 cpm
